Measured values: patent US20060257410A1 (CHEMOCENTRYX, published 2006)
Blank lines part the entries; values can stand above or below the binder they belong to.

Assays:
[1] = biological target: T1, CXCR2 (UniProt P25025 1-360, limits assumed); test: flow cytometry on transfected HEK 293 cells
T1 construct: whole, on cells
T1 sequence (looked up): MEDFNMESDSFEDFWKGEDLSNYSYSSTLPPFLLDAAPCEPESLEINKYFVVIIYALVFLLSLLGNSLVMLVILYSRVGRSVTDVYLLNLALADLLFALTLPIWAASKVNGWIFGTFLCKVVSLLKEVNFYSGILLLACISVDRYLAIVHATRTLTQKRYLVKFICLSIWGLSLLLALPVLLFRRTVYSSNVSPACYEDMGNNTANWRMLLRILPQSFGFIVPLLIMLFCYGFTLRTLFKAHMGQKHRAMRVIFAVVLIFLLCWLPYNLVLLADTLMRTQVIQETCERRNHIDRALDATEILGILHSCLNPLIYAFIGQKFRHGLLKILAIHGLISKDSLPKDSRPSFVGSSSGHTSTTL

[2] = biological target: T2, mouse homolog of CCX CKR2 (mouse, UniProt P56485 1-362); test: IHC on fixed paraffin embedded tissue sections
T2 construct: whole, on cells; also called mouse CCX-CKR2
T2 sequence (P56485 whole entry): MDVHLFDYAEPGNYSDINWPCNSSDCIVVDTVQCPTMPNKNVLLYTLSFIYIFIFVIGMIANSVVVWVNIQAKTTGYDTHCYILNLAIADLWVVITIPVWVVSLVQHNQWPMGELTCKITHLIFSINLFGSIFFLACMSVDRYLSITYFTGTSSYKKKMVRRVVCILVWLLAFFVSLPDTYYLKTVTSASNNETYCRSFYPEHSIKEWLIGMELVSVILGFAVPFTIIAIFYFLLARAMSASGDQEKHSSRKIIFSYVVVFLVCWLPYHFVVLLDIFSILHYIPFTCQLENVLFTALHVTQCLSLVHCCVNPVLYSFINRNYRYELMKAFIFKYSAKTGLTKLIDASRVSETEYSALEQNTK

binding result [1]: no binding
binding result [2]: binds
B1: monoclonal antibody 11G8 (antibody, V domains shown)
VH: EVKLVESGGDLVQPGGSLKLSCATSGFTFSDYYMFWVRQTPEKRLEWVAYITNGGDRSYYSDTVTGRFIISRDNAKNTLYLQMSRLKSEDTAMYYCARQGNWAAWFVYWGQGTLVTVSA
VL: DVLMTQTPLSLPVSLGDQASISCRSSHYIVHSDGNTYLEWYLQKPGQSPKLLIYKVSNRFSGVPDRFSGSGSGTDFTLKISRVEAEDLGIYYCFQGSHVPLTFGAGTKLELKR
notes: Mouse hybridoma monoclonal antibody raised by gene gun inoculation with CCX-CKR2 cDNA

binding result [1]: no binding
binding result [2]: binds
B2: monoclonal antibody 6E10 (antibody, V domains shown)
VH: EVKLDETGGGLVQPGRPMKLSCVASGFTFSDYWMNWVRQSPEKGLEWVGQIRNKPYNYETYYSDSVKGRFTISRDDSKSSVYLQMNNLRTEDTGIYYCTSLRYWGQGTLVTVSA
VL: DIVMTQSPSSLTVTAGEKVTMSCKSSHSLLNSGIQKNFLTWYQQKPGQPPKVLIYWAFTRESGVPERFTGSGSGTDFTLTISSVQAEDLAVYYCQSDYTYPFTFGSGTKLEIKR
notes: as for B1
